Numbered stars: 1 amine (or outer) side, 2 acyl side, 3 side chain; on linkers, the order of the positions; unused ones are H or OH. Bridge positions count the residues as written; N and C are the ends. Side chains are listed from the residue outwards. Ends that are not written are not given here. * marks the point of attachment. C20 diacid = O=C(O)CCCCCCCCCCCCCCCCCCC(=O)*; γGlu = O=C(O)[C@H](CCC(=O)[*:2])N[*:1]
B1: N^ε1-[(4S)-4-carboxy-4-(19-carboxynonadecanoylamino)butanoyl]-[Arg17,Pro21,Pro27]-h-amylin (peptide)
peptide: K([γGlu-C20 diacid])CNTATCATQRLANFLRHSSPNFGAIPSSTNVGSNTY-NH2
modifications: disulfide 2-7; N-terminus assumed
SMILES: CC[C@H](C)[C@H](NC(=O)[C@H](C)NC(=O)CNC(=O)[C@H](Cc1ccccc1)NC(=O)[C@H](CC(N)=O)NC(=O)[C@@H]1CCCN1C(=O)[C@H](CO)NC(=O)[C@H](CO)NC(=O)[C@H](Cc1c[nH]cn1)NC(=O)[C@H](CCCNC(=N)N)NC(=O)[C@H](CC(C)C)NC(=O)[C@H](Cc1ccccc1)NC(=O)[C@H](CC(N)=O)NC(=O)[C@H](C)NC(=O)[C@H](CC(C)C)NC(=O)[C@H](CCCNC(=N)N)NC(=O)[C@H](CCC(N)=O)NC(=O)[C@@H](NC(=O)[C@H](C)NC(=O)[C@@H]1CSSC[C@H](NC(=O)[C@@H](N)CCCCNC(=O)CC[C@H](NC(=O)CCCCCCCCCCCCCCCCCCC(=O)O)C(=O)O)C(=O)N[C@@H](CC(N)=O)C(=O)N[C@@H]([C@@H](C)O)C(=O)N[C@@H](C)C(=O)N[C@@H]([C@@H](C)O)C(=O)N1)[C@@H](C)O)C(=O)N1CCC[C@H]1C(=O)N[C@@H](CO)C(=O)N[C@@H](CO)C(=O)N[C@H](C(=O)N[C@@H](CC(N)=O)C(=O)N[C@H](C(=O)NCC(=O)N[C@@H](CO)C(=O)N[C@@H](CC(N)=O)C(=O)N[C@H](C(=O)N[C@@H](Cc1ccc(O)cc1)C(N)=O)[C@@H](C)O)C(C)C)[C@@H](C)O
notes: analogue of human amylin; also called compound 48
B2: N^α1-[(4S)-4-carboxy-4-(19-carboxynonadecanoylamino)butanoyl]-[Glu14,Arg17,Pro21,Pro27]-h-amylin (peptide)
peptide: KCNTATCATQRLAEFLRHSSPNFGAIPSSTNVGSNTY
modifications: C20 diacid-gGlu acylated on the alpha amino group of the N-terminal residue (Lys 1); disulfide Cys2-Cys7; C-terminal amide
notes: Derivative of human amylin; also called compound 9
B3: N^α1-[(4S)-4-carboxy-4-(19-carboxynonadecanoylamino)butanoyl]-[Glu14,Arg17,Pro21,Pro27,Asp35,Pro37]-h-amylin (peptide)
peptide: {C20 diacid-γGlu}-KCNTATCATQRLAEFLRHSSPNFGAIPSSTNVGSDTP-NH2
modifications: disulfide 2-7
SMILES: CC[C@H](C)[C@H](NC(=O)[C@H](C)NC(=O)CNC(=O)[C@H](Cc1ccccc1)NC(=O)[C@H](CC(N)=O)NC(=O)[C@@H]1CCCN1C(=O)[C@H](CO)NC(=O)[C@H](CO)NC(=O)[C@H](Cc1c[nH]cn1)NC(=O)[C@H](CCCNC(=N)N)NC(=O)[C@H](CC(C)C)NC(=O)[C@H](Cc1ccccc1)NC(=O)[C@H](CCC(=O)O)NC(=O)[C@H](C)NC(=O)[C@H](CC(C)C)NC(=O)[C@H](CCCNC(=N)N)NC(=O)[C@H](CCC(N)=O)NC(=O)[C@@H](NC(=O)[C@H](C)NC(=O)[C@@H]1CSSC[C@H](NC(=O)[C@H](CCCCN)NC(=O)CC[C@H](NC(=O)CCCCCCCCCCCCCCCCCCC(=O)O)C(=O)O)C(=O)N[C@@H](CC(N)=O)C(=O)N[C@@H]([C@@H](C)O)C(=O)N[C@@H](C)C(=O)N[C@@H]([C@@H](C)O)C(=O)N1)[C@@H](C)O)C(=O)N1CCC[C@H]1C(=O)N[C@@H](CO)C(=O)N[C@@H](CO)C(=O)N[C@H](C(=O)N[C@@H](CC(N)=O)C(=O)N[C@H](C(=O)NCC(=O)N[C@@H](CO)C(=O)N[C@@H](CC(=O)O)C(=O)N[C@H](C(=O)N1CCC[C@H]1C(N)=O)[C@@H](C)O)C(C)C)[C@@H](C)O
notes: Derivative of human amylin; also called compound 11
B4: N^α1-[(4S)-4-carboxy-4-[[(4S)-4-carboxy-4-(19-carboxynonadecanoylamino)butanoyl]amino]butanoyl]-[Glu14,Arg17,Pro21,Pro27,Pro37]-h-amylin (peptide)
peptide: {C20 diacid-γGlu-γGlu}-KCNTATCATQRLAEFLRHSSPNFGAIPSSTNVGSNTP-NH2
modifications: disulfide 2-7
SMILES: CC[C@H](C)[C@H](NC(=O)[C@H](C)NC(=O)CNC(=O)[C@H](Cc1ccccc1)NC(=O)[C@H](CC(N)=O)NC(=O)[C@@H]1CCCN1C(=O)[C@H](CO)NC(=O)[C@H](CO)NC(=O)[C@H](Cc1c[nH]cn1)NC(=O)[C@H](CCCNC(=N)N)NC(=O)[C@H](CC(C)C)NC(=O)[C@H](Cc1ccccc1)NC(=O)[C@H](CCC(=O)O)NC(=O)[C@H](C)NC(=O)[C@H](CC(C)C)NC(=O)[C@H](CCCNC(=N)N)NC(=O)[C@H](CCC(N)=O)NC(=O)[C@@H](NC(=O)[C@H](C)NC(=O)[C@@H]1CSSC[C@H](NC(=O)[C@H](CCCCN)NC(=O)CC[C@H](NC(=O)CC[C@H](NC(=O)CCCCCCCCCCCCCCCCCCC(=O)O)C(=O)O)C(=O)O)C(=O)N[C@@H](CC(N)=O)C(=O)N[C@@H]([C@@H](C)O)C(=O)N[C@@H](C)C(=O)N[C@@H]([C@@H](C)O)C(=O)N1)[C@@H](C)O)C(=O)N1CCC[C@H]1C(=O)N[C@@H](CO)C(=O)N[C@@H](CO)C(=O)N[C@H](C(=O)N[C@@H](CC(N)=O)C(=O)N[C@H](C(=O)NCC(=O)N[C@@H](CO)C(=O)N[C@@H](CC(N)=O)C(=O)N[C@H](C(=O)N1CCC[C@H]1C(N)=O)[C@@H](C)O)C(C)C)[C@@H](C)O
notes: Derivative of human amylin; also called compound 14
B5: N^ε1-[(4S)-4-carboxy-4-[[(4S)-4-carboxy-4-(19-carboxynonadecanoylamino)butanoyl]amino]butanoyl]-[Glu14,Arg17,Pro21,Pro27,Pro37]-h-amylin (peptide)
peptide: K([γGlu-γGlu-C20 diacid])CNTATCATQRLAEFLRHSSPNFGAIPSSTNVGSNTP-NH2
modifications: disulfide 2-7 (inferred)
notes: Derivative of human amylin; also called compound 13
B6: N^α1-[(4S)-4-carboxy-4-(19-carboxynonadecanoylamino)butanoyl]-[Glu14,Arg17,Pro21,Pro27,Pro37]-h-amylin (peptide)
peptide: {C20 diacid-γGlu}-KCNTATCATQRLAEFLRHSSPNFGAIPSSTNVGSNTP-NH2
modifications: disulfide 2-7
notes: Derivative of human amylin; also called compound 8
B7: N^α1-[(4S)-4-carboxy-4-(19-carboxynonadecanoylamino)butanoyl]-[Asp14,Arg17,Pro21,Pro27,Pro37]-h-amylin (peptide)
peptide: {C20 diacid-γGlu}-KCNTATCATQRLADFLRHSSPNFGAIPSSTNVGSNTP-NH2
modifications: disulfide 2-7
SMILES: CC[C@H](C)[C@H](NC(=O)[C@H](C)NC(=O)CNC(=O)[C@H](Cc1ccccc1)NC(=O)[C@H](CC(N)=O)NC(=O)[C@@H]1CCCN1C(=O)[C@H](CO)NC(=O)[C@H](CO)NC(=O)[C@H](Cc1c[nH]cn1)NC(=O)[C@H](CCCNC(=N)N)NC(=O)[C@H](CC(C)C)NC(=O)[C@H](Cc1ccccc1)NC(=O)[C@H](CC(=O)O)NC(=O)[C@H](C)NC(=O)[C@H](CC(C)C)NC(=O)[C@H](CCCNC(=N)N)NC(=O)[C@H](CCC(N)=O)NC(=O)[C@@H](NC(=O)[C@H](C)NC(=O)[C@@H]1CSSC[C@H](NC(=O)[C@H](CCCCN)NC(=O)CC[C@H](NC(=O)CCCCCCCCCCCCCCCCCCC(=O)O)C(=O)O)C(=O)N[C@@H](CC(N)=O)C(=O)N[C@@H]([C@@H](C)O)C(=O)N[C@@H](C)C(=O)N[C@@H]([C@@H](C)O)C(=O)N1)[C@@H](C)O)C(=O)N1CCC[C@H]1C(=O)N[C@@H](CO)C(=O)N[C@@H](CO)C(=O)N[C@H](C(=O)N[C@@H](CC(N)=O)C(=O)N[C@H](C(=O)NCC(=O)N[C@@H](CO)C(=O)N[C@@H](CC(N)=O)C(=O)N[C@H](C(=O)N1CCC[C@H]1C(N)=O)[C@@H](C)O)C(C)C)[C@@H](C)O
notes: Derivative of human amylin; also called compound 10

molecular target: T1, human calcitonin receptor (human, UniProt P30988 25-474); assay: cell-based or functional assay
T1 sequence (looked up): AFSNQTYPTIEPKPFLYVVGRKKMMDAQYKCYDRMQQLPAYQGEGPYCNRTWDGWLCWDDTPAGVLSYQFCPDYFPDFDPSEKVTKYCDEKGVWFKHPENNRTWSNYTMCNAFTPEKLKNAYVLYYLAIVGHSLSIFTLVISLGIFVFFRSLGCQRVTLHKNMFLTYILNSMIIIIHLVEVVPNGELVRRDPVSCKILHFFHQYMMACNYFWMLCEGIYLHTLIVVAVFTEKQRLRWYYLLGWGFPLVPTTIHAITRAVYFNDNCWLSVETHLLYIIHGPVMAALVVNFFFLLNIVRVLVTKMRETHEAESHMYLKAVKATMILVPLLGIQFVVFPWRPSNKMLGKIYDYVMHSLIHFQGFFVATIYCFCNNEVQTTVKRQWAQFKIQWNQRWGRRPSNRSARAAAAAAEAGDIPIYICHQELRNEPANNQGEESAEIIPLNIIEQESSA

B1 was tested, and the “hCTR funct. EC50” value was 1.97 nM.

molecular target: T2, human calcitonin receptor (human, UniProt P30988 25-474); assay: ratio IC50 human calcitonin receptor / IC50 human amylin receptor (Assays VII and V)
T2 construct: whole, on cells; Used as membranes prepared from the transfected cells (Assay VII); also called hCTR; hCT
T2 sequence (looked up): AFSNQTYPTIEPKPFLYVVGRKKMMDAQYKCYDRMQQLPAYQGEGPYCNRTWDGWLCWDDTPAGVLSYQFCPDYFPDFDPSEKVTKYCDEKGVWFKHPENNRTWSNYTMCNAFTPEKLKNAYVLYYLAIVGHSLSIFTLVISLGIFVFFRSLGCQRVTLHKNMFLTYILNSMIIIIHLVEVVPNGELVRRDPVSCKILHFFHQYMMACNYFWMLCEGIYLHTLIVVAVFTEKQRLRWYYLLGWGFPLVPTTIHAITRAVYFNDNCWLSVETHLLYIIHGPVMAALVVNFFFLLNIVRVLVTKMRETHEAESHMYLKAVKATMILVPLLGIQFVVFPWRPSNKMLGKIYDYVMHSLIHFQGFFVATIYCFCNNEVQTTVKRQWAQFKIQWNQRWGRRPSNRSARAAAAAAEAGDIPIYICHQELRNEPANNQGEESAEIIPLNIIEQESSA
Protocol: The resulting pellet was resuspended, homogenized and centrifuged (20.000 rpm, 15 min) in a buffer containing 20 mM Na-HEPES and 0.1 mM EDTA (pH 7.4, buffer 2). The resulting pellet was resuspended in buffer 2 and protein concentration was measured (BCA protein Assay, Pierce). The homogenate was kept cold during the whole procedure. The membranes were kept at −80° C. until use. The assay was performed in a 384 well Optiplate (PerkinElmer) in a total volume of 40 ul. Membranes were mixed with SPA beads. Final concentration of membranes 35 ng/μL final and SPA beads was 0.05 mg/well. Test-compounds were dissolved in DMSO and further diluted in assay buffer (50 mM Hepes, pH 7.4, 1 mM CaCl2, 5 mM MgCl₂, 0.1% OA and 0.02% Tween20). […] The final mixture was incubated with shaking at 400 rpm for 120 min at 25° C. prior to centrifugation (1500 rpm, 10 min). Samples were analyzed on TopCounter™ (Packard). The IC₅₀ was calculated using (one site binding competition analysis) GraphPad Prism5 as a measure of receptor affinity.
Membranes were prepared in the following way; the cells were rinsed with PBS and incubated with Versene for approximately 5 min before harvesting. The cells were flushed with PBS and the cell-suspension was centrifuged for 5 min at 1000 rpm. Cells were homogenized (Ultrathurrax) in a buffer containing 20 mM Na-HEPES and 10 mM EDTA (pH 7.4) and centrifuged at 20.000 rpm for 15 min. The resulting pellet was resuspended, homogenized and centrifuged (20.000 rpm, 15 min) in a buffer containing 20 mM Na-HEPES and 0.1 mM EDTA (pH 7.4, buffer 2). The resulting pellet was resuspended in buffer 2 and protein concentration was measured (BCA protein Assay, Pierce). The homogenate was kept cold during the whole procedure. The membranes were kept at −80° C. until use. Assay was performed in a 384 well Optiplate (PerkinElmer) in a total volume of 40 ul. Membranes were mixed with SPA beads.

Point of comparison: B5, “Ratio hCT/hAmylin binding” value 1.2. Against it:
- B2 — higher, 8
- B3 — lower, 1
- B4 — higher, 2.2
- B6 — lower, 0.5
- B7 — the same, 1.2

Source: patent US20140087995A1 (published 2014)
